The source of these data is patent US6482933 (Takeda / Millennium, dated 2002).

The target of this experiment is T1, CARD-4L epitope tagged with HA (pCI-CARD-4LcHA) (human, UniProt Q9Y239 1-953).
T1 construct: Expressed in 293T cells from pCI; in cell lysate
T1 sequence: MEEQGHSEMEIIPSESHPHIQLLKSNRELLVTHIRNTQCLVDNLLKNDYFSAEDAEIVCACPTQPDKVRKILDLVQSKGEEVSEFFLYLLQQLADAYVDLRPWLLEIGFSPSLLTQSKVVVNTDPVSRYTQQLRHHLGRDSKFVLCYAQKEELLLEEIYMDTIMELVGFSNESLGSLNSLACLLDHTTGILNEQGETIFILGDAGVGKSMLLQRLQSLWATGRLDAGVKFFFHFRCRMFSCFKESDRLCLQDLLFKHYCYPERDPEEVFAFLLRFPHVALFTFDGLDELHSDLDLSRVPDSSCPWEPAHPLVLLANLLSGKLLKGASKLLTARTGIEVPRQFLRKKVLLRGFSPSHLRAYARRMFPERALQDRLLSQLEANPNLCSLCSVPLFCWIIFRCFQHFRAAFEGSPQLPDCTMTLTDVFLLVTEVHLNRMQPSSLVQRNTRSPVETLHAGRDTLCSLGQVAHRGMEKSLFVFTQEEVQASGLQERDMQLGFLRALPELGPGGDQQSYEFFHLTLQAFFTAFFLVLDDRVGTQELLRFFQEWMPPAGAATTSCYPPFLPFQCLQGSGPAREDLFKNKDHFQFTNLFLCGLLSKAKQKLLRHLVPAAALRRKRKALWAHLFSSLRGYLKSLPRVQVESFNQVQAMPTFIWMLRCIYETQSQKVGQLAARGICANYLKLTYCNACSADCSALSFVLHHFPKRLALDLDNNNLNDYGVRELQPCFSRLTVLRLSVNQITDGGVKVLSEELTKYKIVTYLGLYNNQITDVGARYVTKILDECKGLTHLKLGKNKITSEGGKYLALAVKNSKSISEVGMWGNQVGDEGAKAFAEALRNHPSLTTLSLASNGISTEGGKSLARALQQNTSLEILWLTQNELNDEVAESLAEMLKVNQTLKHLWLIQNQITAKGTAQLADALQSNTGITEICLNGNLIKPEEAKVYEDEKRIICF
Kind of experiment: coimmunoprecipitation from cotransfected 293T cells (anti-MYC IP, anti-HA Western blot).

Protocol: Cells from each transfected line were lysed and an immunoprecipitation procedure was carried out on each lysate with an anti-MYC epitope tag antibody to precipitate the CARD-4LcHA expressed by each cell line and any physically associated proteins.

B1: CARD-3 lacking the CARD domain (SEQ ID NO:6) epitope tagged with MYC (pCI-CARD3noCARDnMYC) (other, not shown: small tags and cut ends)
chain: MNGEAICSALPTIPYHKLADLRYLSRGASGTVSSARHADWRVQVAVKHLHIHTPLLDSERKDVLREAEILHKARFSYILPILGICNEPEFLGIVTEYMPNGSLNELLHRKTEYPDVAWPLRFRILHEIALGVNYLHNMTPPLLHHDLKTQNILLDNEFHVKIADFGLSKWRMMSLSQSRSSKSAPEGGTIIYMPPENYEPGQKSRASIKHDIYSYAVITWEVLSRKQPFEDVTNPLQIMYSVSQGHRPVINEESLPYDIPHRARMISLIESGWAQNPDERPSFLKCLIELEPVLRTFEEITFLEAVIQLKKTKLQSVSSAIHLCDKKKMELSLNIPVNHGPQEESCGSSQLHENSGSPETSRSLPAPQDNDFLSRKAQDCYFMKLHHCPGNHSWDSTISGSQRAAFCDHKTIPCSSAIINPLSTAGNSERL
notes: also called CARD-3 lacking its CARD domain
As to B1, the binding result is listed as “no binding”.
